This note sets out measurements from patent US20090035818A1 (NATIONAL UNIVERSITY OF CORPORATION HIROSHIMA UNIVERSITY, published 2009).

Experiment [1] concerns the target T1, chicken egg yolk antibody (chicken IgY antibody) (chicken).
T1 construct: Purified from egg yolk with the Eggcellent Chicken IgY Purification Kit (Pierce)
As to the kind of experiment: SPR (Biacore 2000), chicken IgY on CM5 chip, lectin as analyte. The text has this: Assessment was made as to affinity of the different types of lectins and chicken egg yolk antibody (chicken IgY antibody). Briefly, using Biacore 2000 (BIACORE) that employs the principle of surface plasmon resonance method (hereinafter, “SPR method”), chicken egg yolk antibodies (chicken IgY antibodies) were immobilized as ligands on a sensor chip, and measurements were made according to manuals using each type of lectin solution as an analyte. The SPR technique allows for measurement of specific interactions between biomolecules both quickly and quantitatively, without labeling the biomolecules. According to this technique, the ligands are immobilized on a surface of the sensor chip, which is then supplemented with a solution of substance (analyte) that acts on the ligand. Slight changes in mass caused by the binding and dissociation of the molecules are then detected as changes in SPR signals. The mass change is represented by resonance unit (RU). One thousand RU is equivalent to a change in reflection angle of 0.1° caused by resonance, and it means that the analyte has bound to the ligand at 1 ng/mm². The surface of the sensor chip is coated with dextran, and the ligands are immobilized primarily via carboxyl groups that have been introduced into the dextran.
Affinity between each glycoprotein and each lectin was analyzed by SPR technique. Prior to analysis, preliminary analyses were made to assess analysis methods. […] An analysis program was created using “Customized Application” according to the manual, and a subtraction function was used in which subtraction was made from flow cells that had glycoproteins immobilized thereon, from among four flow cells in the sensor chip. […] Under this analysis program, each analyte (lectin) solution was flown on the sensor chip at a flow rate of 30 μl/min for 3 minutes, and buffer was flown for 3 minutes to measure the amount of lectin that had bonded/dissociated.

The target of a further experiment is asialotransferrin (human, UniProt P02787 20-698, sugar chains desialylated by dilute acid treatment; only complex-type sugar chain). Put plainly: cell-based or functional assay.
Chain of asialotransferrin (P02787 20-698 limits assumed): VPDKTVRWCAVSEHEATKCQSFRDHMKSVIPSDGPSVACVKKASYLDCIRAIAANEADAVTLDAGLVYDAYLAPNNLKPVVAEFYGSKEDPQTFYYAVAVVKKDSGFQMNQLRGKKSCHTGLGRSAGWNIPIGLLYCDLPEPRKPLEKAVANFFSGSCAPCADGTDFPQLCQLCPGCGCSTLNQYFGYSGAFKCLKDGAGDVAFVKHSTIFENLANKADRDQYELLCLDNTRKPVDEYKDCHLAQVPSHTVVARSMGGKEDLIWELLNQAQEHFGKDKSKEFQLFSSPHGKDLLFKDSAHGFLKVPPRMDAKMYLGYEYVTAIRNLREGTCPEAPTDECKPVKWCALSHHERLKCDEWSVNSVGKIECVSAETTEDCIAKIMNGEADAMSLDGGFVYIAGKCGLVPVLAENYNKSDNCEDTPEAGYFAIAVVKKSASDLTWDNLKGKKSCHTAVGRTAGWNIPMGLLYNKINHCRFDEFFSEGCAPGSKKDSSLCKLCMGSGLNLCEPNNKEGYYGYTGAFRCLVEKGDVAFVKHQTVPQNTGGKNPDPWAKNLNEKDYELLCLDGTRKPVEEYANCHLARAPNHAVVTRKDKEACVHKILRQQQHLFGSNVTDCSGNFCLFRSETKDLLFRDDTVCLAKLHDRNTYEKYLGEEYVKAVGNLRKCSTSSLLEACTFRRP
Another experiment deals with asialomucin (bovine). As to the kind of experiment: cell-based or functional assay.
A further experiment deals with T2, asialofetuin (calf, UniProt P12763 19-359, sugar chains desialylated).
T2 sequence (looked up): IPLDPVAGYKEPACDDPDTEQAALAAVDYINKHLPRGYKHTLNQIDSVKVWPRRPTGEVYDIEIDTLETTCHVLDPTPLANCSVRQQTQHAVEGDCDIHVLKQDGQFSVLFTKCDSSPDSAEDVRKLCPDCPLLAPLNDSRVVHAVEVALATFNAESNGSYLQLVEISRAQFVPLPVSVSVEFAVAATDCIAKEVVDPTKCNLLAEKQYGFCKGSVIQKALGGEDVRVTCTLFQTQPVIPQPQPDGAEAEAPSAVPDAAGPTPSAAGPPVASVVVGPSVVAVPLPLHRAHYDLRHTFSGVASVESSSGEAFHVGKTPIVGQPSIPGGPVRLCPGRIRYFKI
As to the kind of experiment: cell-based or functional assay.

The target in experiment [2] is mucin (bovine submaxillary gland) (bovine). Put plainly: cell-based or functional assay.
A further experiment has as its target transferrin (human) (human, UniProt P02787 20-698). Put plainly: cell-based or functional assay.
The target of experiment [3] is T3, fetuin (type III, calf serum) (calf, UniProt P12763 19-359).
T3 sequence (looked up): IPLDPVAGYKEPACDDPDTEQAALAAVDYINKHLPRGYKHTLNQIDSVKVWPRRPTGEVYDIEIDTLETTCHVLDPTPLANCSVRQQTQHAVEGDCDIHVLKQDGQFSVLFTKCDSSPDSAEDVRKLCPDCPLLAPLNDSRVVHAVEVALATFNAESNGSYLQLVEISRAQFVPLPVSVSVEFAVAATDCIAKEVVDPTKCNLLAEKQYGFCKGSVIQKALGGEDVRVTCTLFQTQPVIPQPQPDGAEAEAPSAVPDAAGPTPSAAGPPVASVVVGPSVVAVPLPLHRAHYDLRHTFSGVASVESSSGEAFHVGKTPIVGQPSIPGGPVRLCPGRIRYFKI
Put plainly: cell-based or functional assay.

Chain of transferrin (human) (P02787 20-698 limits assumed): as the sequence (P02787 20-698 limits assumed) above

B1: BML-17 (other)
chain: VIYQDPVTSDMFAKIPMPGHRGPWYVCHSSGDWSRNEPVFGRCAIDAKGMVEAYFPYGGKDIKWPSRWSAVITTGVYWGKYNDWKQADCNGGQQVVDGGRGAVTVRMDGISECKGWTTGKSSHNEVWFGCNGKEVGSWISDTPASDVFPICQEYGAAVKIVHMGRAFN
notes: also called polypeptide isolated from Bryopsis maxima; BML-17 column (immobilised form)
Take B1: the Ka in experiment [1] turned out to be 8.36e+07 M⁻¹. The Kd (commonly the free concentration of one partner at which half of the binding sites on the other are occupied at equilibrium, for simple one-to-one binding) in experiment [1] was determined as 12 nM. For the same molecule, the koff (in general, the rate constant with which the complex falls apart) in experiment [1] was determined as 0.00586 s⁻¹. Besides, the kon (usually a measure of how fast the partners come together) in experiment [1] stood at 490000 M⁻¹ s⁻¹. Besides, the “Minimum inhibitory concentration (hemagglutination inhibition, trypsin-treated rabbit erythrocytes)” value came out at 1000 µg/mL with asialotransferrin; 250 µg/mL in the experiment with asialomucin; 500 µg/mL in the experiment with asialofetuin; 250 µg/mL in experiment [2]; 2000 µg/mL in the experiment with transferrin (human); 1000 µg/mL in experiment [3].

B2: Eucheuma serra-derived lectin ESA-2 (other)
chain: GRYTVQNQWGGSSAPWNDAGLWILGSRGNQNVMAVDVNSSDGGANLNGTMTYSGEGPIGFKGARRGESNVYDVENQWGGSSAPWHAGGQFVIGSRSGQGVLAVNITSSDGGKTLTGTMTYEREGPIGFKGTQSGGDTYNVENQWGGSSAPWNKAGIWALGDRSGQAMIAMDVSSSDGGKTLEGTMQYKGEGPIGFRGKLSGANNYSVENQWGGSSAPWNAAGDWLIGDRHNQNITAVKVSSDNDGKNLDGTCTYEREGPIGFKGVATS
In the case of B2, in experiment [1], the Ka was 7.73e+07 M⁻¹, the Kd amounted to 12.9 nM, the koff came to 0.00455 s⁻¹ and the kon is 352000 M⁻¹ s⁻¹.
